We go through 4 molecules from publication PMC4351158.

Substitutions are numbered along the chain they refer to. In names and notes the source's numbering stands. Where two headings read alike, the source gives them in different places.

The target in assay [1] is fluorescent peptide derived from residues 18-58 of lysozyme. The experiment in a line: fluorescence polarisation. Background: In fluorescence polarisation assays a small probe gives low polarisation when free and higher when bound to something large.
Assay [2] shares this target. The experiment in a line: fluorescence polarisation. The source holds these as a separate data set.

B1: DegP S210A (proteolytically inactive variant missing the catalytic serine) (enzyme)
chain: AETSSATTAQQMPSLAPMLEKVMPSVVSINVEGSTTVNTPRMPRNFQQFFGDDSPFCQEGSPFQSSPFCQGGQGGNGGGQQQKFMALGSGVIIDADKGYVVTNNHVVDNATVIKVQLSDGRKFDAKMVGKDPRSDIALIQIQNPKNLTAIKMADSDALRVGDYTVAIGNPFGLGETVTSGIVSALGRSGLNAENYENFIQTDAAINRGNAGGALVNLNGELIGINTAILAPDGGNIGIGFAIPSNMVKNLTSQMVEYGQVKRGELGIMGTELNSELAKAMKVDAQRGAFVSQVLPNSSAAKAGIKAGDVITSLNGKPISSFAALRAQVGTMPVGSKLTLGLLRDGKQVNVNLELQQSSQNQVDSSSIFNGIEGAEMSNKGKDQGVVVNNVKTGTPAAQIGLKKGDVIIGANQQAVKNIAELRKVLDSKPSVLALNIQRGDSTIYLLMQ
modifications: donor or acceptor dye on the trimers in the FRET assay only (site not given)
For the molecule B1, in assay [1], the equilibrium dissociation constant (Kd) came to 1 µM.

B2: DegP S210A/Q200A (enzyme)
chain: B1 chain with Q200A
modifications: donor or acceptor dye on the trimers in the FRET assay only (site not given)
Regarding B2, the equilibrium dissociation constant (Kd) in assay [2] and in assay [1] was 30 µM each time.

B3: DegP S210A/T176V (enzyme)
chain: B1 chain with T176V
modifications: donor or acceptor dye on the trimers in the FRET assay only (site not given)
As to B3, the dissociation constant (Kd) in assay [2] and in assay [1] was 30 µM throughout.

B4: DegP S210A/R187A (enzyme)
chain: B1 chain with R187A
modifications: donor or acceptor dye on the trimers in the FRET assay only (site not given)
As to B4, the dissociation constant Kd in assay [2] and in assay [1] was 30 µM throughout.

What is called Kd is the free concentration of one partner at which half of the binding sites on the other are occupied at equilibrium, for simple one-to-one binding. Low readings indicate a tighter complex, high ones a looser complex.
